# T1: extracellular domain of mouse IL12Rb2 (614 amino acids, amino acids 24-637 of the mIL12Rb2 precursor, UniProt … (mouse, UniProt P97378 24-637))
# T1 construct: also called mIL12Rb2 ECD; mIL12Rb2 ECD antigen
# T1 sequence: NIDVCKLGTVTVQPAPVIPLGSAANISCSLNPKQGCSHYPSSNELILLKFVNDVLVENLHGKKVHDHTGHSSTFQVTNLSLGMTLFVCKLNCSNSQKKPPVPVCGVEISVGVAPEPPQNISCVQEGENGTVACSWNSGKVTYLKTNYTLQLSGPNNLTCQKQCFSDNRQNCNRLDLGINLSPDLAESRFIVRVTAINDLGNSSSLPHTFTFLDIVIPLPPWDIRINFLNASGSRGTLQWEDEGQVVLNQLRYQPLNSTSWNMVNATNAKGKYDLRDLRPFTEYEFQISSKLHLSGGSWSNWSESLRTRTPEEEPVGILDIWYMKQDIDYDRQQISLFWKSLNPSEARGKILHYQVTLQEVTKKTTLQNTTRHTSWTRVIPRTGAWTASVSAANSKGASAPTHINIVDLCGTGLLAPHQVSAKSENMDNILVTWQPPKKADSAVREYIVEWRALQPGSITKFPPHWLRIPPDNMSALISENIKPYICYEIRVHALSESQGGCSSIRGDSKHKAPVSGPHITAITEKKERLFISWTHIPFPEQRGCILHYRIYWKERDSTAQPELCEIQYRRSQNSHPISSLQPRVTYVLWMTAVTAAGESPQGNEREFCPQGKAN
# T2: extracellular domain of human IL12Rb2 (amino acids 24-622 of hIL12Rb2, UniProt Q99665) (human, UniProt Q99665 24-622)
# T2 construct: also called hIL12Rb2 ECD; hIL12Rb2-ECD
# T2 sequence: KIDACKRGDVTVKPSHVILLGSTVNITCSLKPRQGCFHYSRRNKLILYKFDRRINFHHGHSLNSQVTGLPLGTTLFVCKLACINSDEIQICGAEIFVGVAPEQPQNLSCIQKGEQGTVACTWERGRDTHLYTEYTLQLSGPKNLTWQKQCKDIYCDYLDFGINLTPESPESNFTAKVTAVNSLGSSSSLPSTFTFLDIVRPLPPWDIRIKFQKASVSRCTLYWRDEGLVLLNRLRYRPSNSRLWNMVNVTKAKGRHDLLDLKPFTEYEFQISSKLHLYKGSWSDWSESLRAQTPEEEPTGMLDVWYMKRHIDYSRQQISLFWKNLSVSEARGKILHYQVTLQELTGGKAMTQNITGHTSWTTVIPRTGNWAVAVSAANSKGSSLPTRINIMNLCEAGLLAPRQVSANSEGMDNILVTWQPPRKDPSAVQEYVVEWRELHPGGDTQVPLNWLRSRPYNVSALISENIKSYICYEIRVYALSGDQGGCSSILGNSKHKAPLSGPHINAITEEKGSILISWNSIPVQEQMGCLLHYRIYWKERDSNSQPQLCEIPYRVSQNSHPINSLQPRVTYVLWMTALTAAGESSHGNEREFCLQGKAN
# Molecular target: T1, extracellular domain of mouse IL12Rb2 …
# Assay: periplasmic extract ELISA on antigen-coated plate; positive if A450 at least threefold over PBS-coated control
# Method: (§1) Upon completion of the biopanning of Example 3, three 96-well plates of individual phage clones were isolated in order to perform periplasmic extract ELISA (PE-ELISA) on IL12Rb2 coated plates to identify positive VHH binders that selectively bound IL12Rb2. A 96-well plate was coated with IL12Rb2 and PBS under the same conditions. Next, wells were blocked at 37° C. for 1 h. Then, 100 μl of extracted antibodies was added to each well and incubated for 1 h. Subsequently, 100 μl of anti-tag polyclonal antibody conjugated to HRP was added to each well and incubated at 37° C. for 1 h. Plates were developed with TMB substrate. The reaction was stopped by the addition of H2SO4. Absorbance at 450 nm was read on a microtiter plate reader. Antibodies with absorbance of the antigen-coated well at least threefold greater than PBS-coated control are VHHs that specifically bind to IL 12Rb2. Positive clones were sequenced, and sequences analyzed to identify unique clonotypes
row,Binder,binding result
1,"mIL12Rb2 VHH6 (VHH, Camel VHH, tested as a periplasmic extract of a phage clone; also called anti-mouse IL12Rb2 VHH6; not shown: HA/His tag encoded by the pMECS phagemid) VHH: QVQLQESGGGSVQAGGSLRLSCAVSGKAYGGAWFRQAQGKGREGVAAIWIGTGTTFYADSVKGRFTISRDNAKNTVYLQMDGLKPEDTAVYYCAADDRPGYRDPLAPVSYNHWGQGTQVTVSS",binds
2,"mIL12Rb2 VHH7 (VHH, Camel VHH, tested as a periplasmic extract of a phage clone; also called anti-mouse IL12Rb2 VHH7; not shown: HA/His tag encoded by the pMECS phagemid) VHH: QVQLQESGGGSVQAGGSLKLSCAVSGNPYGGAWFRQAQGKSREGVAAIWLGTGTTFYADSVKGRFTISRDNAKNTVYVQIDGLKPEDTAMYYCAADDRPGYRDPLAPVSYNHWGQGTQVTVSS",binds
3,"mIL12Rb2 VHH8 (VHH, Camel VHH, tested as a periplasmic extract of a phage clone; also called anti-mouse IL12Rb2 VHH8; not shown: HA/His tag encoded by the pMECS phagemid) VHH: QVQLQESGGGSVQAGGSLRLSCVVSGKAYGGAWFRQAQGKSREGVAAIWIGTGTTFYADSVKGRFTISRDNAKNTVYLQMDGLKPEDTAMYYCAADDRPGYRDPLAPVSYNHWGQGTQVTVSS",binds
4,"mIL12Rb2 VHH4 (VHH, Camel VHH, tested as a periplasmic extract of a phage clone; also called anti-mouse IL12Rb2 VHH4; not shown: HA/His tag encoded by the pMECS phagemid) VHH: QVQLQESGGGSVQVGGSLRLSCAVSGKLYGGAWFRQAQGKGREGVAAIWIGTGTTFYADSVKGRFTISRDNAKNTVYLQMDGLKPEDTALYYCAADDRPGYRDPLAPVSYNHWGQGTQVTVSS",binds
5,"mIL12Rb2 VHH9 (VHH, Camel VHH, tested as a periplasmic extract of a phage clone; also called anti-mouse IL12Rb2 VHH9; not shown: HA/His tag encoded by the pMECS phagemid) VHH: QVQLQESGGGSVQAGGSLTLSCVVSGKAFGGAWFRQAQGKGREGVAAIWIGTGTTFYADSVKGRFTISRDNAKNTVYLQMDGLKPDDTAMYYCAADDRPGYRDPLAPVSYNHWGQGTQVTVSS",binds
6,"mIL12Rb2 VHH2 (VHH, Camel VHH, tested as a periplasmic extract of a phage clone; also called anti-mouse IL12Rb2 VHH2; not shown: HA/His tag encoded by the pMECS phagemid) VHH: QVQLQESGGGSVQAGGSLRLSCAASGVTYGSYYMAAWFRQAPGKEREGVASIYGGSDSTYYADSVLGRFTISQDNGKNTLYLQMNSLKPDDTAMYYCAAAPPGKWFLKRLEGHNYSYWGQGTQVTVSS",binds
7,"mIL12Rb2 VHH5 (VHH, Camel VHH, tested as a periplasmic extract of a phage clone; also called anti-mouse IL12Rb2 VHH5; not shown: HA/His tag encoded by the pMECS phagemid) VHH: QVQLQESGGGSVQAGGSLRLSCAASGITYRGVWMGWFRQAPGKEREGVATIYTGSGHTYYADSVKGRFTISQDNAKNTVYLQMNSLKPEDTAMYYCAARTVGGTFYTLAADSFNTWGQGTQVTVSS",binds
8,"mIL12Rb2 VHH1 (VHH, Camel VHH, tested as a periplasmic extract of a phage clone; also called anti-mouse IL12Rb2 VHH1; not shown: HA/His tag encoded by the pMECS phagemid) VHH: QVQLQESGGGSVQAGGSLRLSCAASGYTYSNRHMGWFRQAPGKEREGVAAIYTGGGSTYYADSVKDRFTISQDNAKNTLYLQMNSLTPEDTAMYYCAADLTRWYSGGWRDPRGYKYWGQGTQVTVS",binds

# Molecular target: T2, extracellular domain of human IL12Rb2 …
# Assay: as above
# Method: as §1
row,Binder,binding result
1,"VHH6 (VHH, Camel VHH, tested as a periplasmic extract of a phage clone; also called anti-human IL12Rb2 VHH6; hIL12Rb2 VHH; not shown: HA/His tag encoded by the pMECS phagemid) VHH: QVQLQESGGGLVQAGGSLRLSCQASGYTYGLFCMGWFRQVSGKKREGVAVVDSPGGRHVADSLKGRFTISKDNANNILYLDMTNLKSEDTATYYCAADPEKYCFLFSDAGYQYWGQGTQVTVSS",binds
2,"VHH2 (VHH, Camel VHH, tested as a periplasmic extract of a phage clone; also called anti-human IL12Rb2 VHH2; hIL12Rb2 VHH; not shown: HA/His tag encoded by the pMECS phagemid) VHH: QVQLQESGGGSVQAGGSLRLSCAASGFTISRYCMGWLRQAPGKQREGVAIIERDGRTGYADSVKGRFTISKDNAKNTLYLQMNSLKPEDTAMYYCGAIEGSCRPDFGYRGQGTQVTVSS",binds
3,"VHH11 (VHH, Camel VHH, tested as a periplasmic extract of a phage clone; also called anti-human IL12Rb2 VHH11; hIL12Rb2 VHH; not shown: HA/His tag encoded by the pMECS phagemid) VHH: QVQLQESGGGSVQAGGSLRLSCAASGFTVSRYCMGWLRQAPGKQREGVAIIERDGRTGYADSVKGRFTISKDDAKNTLYLQMNSLKPEDTAMYYCGAIEGSCRPDFGYRGQGTQVTVSS",binds
4,"VHH9 (VHH, Camel VHH, tested as a periplasmic extract of a phage clone; also called anti-human IL12Rb2 VHH9; hIL12Rb2 VHH; not shown: HA/His tag encoded by the pMECS phagemid) VHH: QVQLQESGGGSVQAGGSLRLSCAASGFTISRYCMGWLRQAPGKQREGVAIIERDGRTGYADSVKGRFTISKDNAKNTLYLQMNSLKPEDTAMYFCGAIEGSCRPDFGYRGQGTQVTVSS",binds
